We go through 1 molecule from patent US20100184614, “MICROARRAY SYSTEMS AND METHODS FOR IDENTIFYING DNA-BINDING PROTEINS” (published 2010).

The data set has as its target Estrogen receptor alpha (UniProt P03372 P03372:1-595). Put plainly: EMSA; column gel, 30 min. The settings on record: tags: Invitrogen; label: IRDye 700 or Cy3; partially double-stranded; 3' single-stranded tag. The protocol: A similar result is obtained using recombinant estrogen receptor alpha (ER-alpha) protein. ER-alpha is obtained from INVITROGEN® and mixed with YZ11 (its specific probe) labeled with IR Dye 700. The mixture was then loaded on the column gel and run for 30 minutes (FIG. 10).
(Mobility shift assays separate free from complexed probe on a gel.)

Estrogen receptor alpha, sequence (P03372 whole entry, one chain of several): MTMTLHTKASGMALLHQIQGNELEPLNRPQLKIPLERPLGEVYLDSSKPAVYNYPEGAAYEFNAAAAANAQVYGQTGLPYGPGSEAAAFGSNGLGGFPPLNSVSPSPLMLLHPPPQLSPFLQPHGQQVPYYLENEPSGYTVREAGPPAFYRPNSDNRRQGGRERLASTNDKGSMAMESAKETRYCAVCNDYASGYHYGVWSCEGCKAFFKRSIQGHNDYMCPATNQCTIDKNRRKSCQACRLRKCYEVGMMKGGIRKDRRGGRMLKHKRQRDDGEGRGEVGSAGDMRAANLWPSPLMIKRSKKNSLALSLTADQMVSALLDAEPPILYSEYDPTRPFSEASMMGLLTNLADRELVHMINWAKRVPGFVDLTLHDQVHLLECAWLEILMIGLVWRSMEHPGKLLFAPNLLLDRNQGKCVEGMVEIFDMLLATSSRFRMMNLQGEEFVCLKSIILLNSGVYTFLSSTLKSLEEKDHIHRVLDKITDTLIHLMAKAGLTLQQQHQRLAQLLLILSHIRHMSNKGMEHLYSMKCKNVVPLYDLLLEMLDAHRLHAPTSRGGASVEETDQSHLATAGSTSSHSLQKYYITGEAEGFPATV

B1: YZ-11 (Table 17) (mixed)
DNA 1: CCTGCCAGGTCGCGCTGCCCTCCTTCTACCATGCCTTAGGAGAATTGTTTTGTTT
DNA 2: GGTAGAAGGAGGGCAGCGCGACCTGGCAGG
For the molecule B1, the binding result is “binds”.
